In article PMC4072508, “Genome-Wide Prediction and Validation of Peptides That Bind Human Prosurvival Bcl-2 Proteins” (PLoS Computational Biology, 2014):
Where “and” joins values, the source holds several entries; their conditions need not be identical. Identical values can stand only once.

Legend:
[1] = target: Bcl-xL (UniProt Q07817); test: peptide SPOT array, c-Myc-tagged receptor at 1 uM or 100 nM, anti-c-Myc-Cy3
[2] = target: Mcl-1 (UniProt Q07820); test: as above
Target sequence in this assay (Q07820 172-327): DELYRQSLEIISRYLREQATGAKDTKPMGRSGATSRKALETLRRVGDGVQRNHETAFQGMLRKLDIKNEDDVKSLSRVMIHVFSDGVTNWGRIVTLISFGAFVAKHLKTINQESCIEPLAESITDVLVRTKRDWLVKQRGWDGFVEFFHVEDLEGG

[3] = target: Bcl-2 (UniProt P10415); test: as above
Target sequence in this assay (P10415 1-217): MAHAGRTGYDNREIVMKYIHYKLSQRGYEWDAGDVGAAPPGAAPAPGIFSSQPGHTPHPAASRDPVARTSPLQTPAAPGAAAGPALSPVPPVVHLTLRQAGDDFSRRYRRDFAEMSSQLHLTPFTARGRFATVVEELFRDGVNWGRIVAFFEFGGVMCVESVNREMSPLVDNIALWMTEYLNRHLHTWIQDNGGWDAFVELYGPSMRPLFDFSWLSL

[4] = target: Bfl-1 (UniProt Q16548); test: as above
Target sequence in this assay (Q16548 1-151): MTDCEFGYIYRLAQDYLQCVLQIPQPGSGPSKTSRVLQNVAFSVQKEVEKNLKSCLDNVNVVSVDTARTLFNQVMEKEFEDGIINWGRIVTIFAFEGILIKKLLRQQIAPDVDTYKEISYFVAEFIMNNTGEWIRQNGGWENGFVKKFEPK

[5] = target: Bcl-w (UniProt Q92843); test: as above
[6] = target: Mcl-1 (UniProt Q07820); conditions: cited from earlier work
Target sequence in this assay (Q07820 whole entry): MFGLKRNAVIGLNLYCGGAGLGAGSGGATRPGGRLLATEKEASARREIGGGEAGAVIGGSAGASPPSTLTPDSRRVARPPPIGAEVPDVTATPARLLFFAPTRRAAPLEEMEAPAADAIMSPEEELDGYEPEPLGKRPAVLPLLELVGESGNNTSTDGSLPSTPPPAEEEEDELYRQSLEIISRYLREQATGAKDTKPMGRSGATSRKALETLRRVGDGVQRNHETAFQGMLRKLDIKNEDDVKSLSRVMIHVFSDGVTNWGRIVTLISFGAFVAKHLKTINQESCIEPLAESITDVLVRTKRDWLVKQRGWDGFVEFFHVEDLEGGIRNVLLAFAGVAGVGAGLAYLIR

[7] = target: Bfl-1 (UniProt Q16548); conditions: cited from earlier work
Target sequence in this assay (Q16548 whole entry): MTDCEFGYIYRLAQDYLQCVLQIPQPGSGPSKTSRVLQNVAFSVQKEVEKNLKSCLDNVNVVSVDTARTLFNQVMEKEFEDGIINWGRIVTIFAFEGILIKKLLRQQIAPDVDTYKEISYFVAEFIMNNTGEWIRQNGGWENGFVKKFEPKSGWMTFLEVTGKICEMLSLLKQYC

[8] = target: PXT1 BH3-like peptide (human); test: fluorescence polarisation; direct binding: 10 nM FAM-labeled peptide, receptor serially diluted; 25°C; 20 mM NaPO4, 50 mM NaCl, 1 mM EDTA, 0.001% Triton X, pH 7.8; single-site binding model
[9] = target: peptide based on the putative BH3 motif in Aven (human); test: peptide or protein array; peptide SPOT arrays on nitrocellulose membranes; 1 µM or 100 nM c-Myc-tagged receptor in TBS (50 mM Tris, pH 8.1, 100 mM NaCl, 0.01% Triton X-100), 1 h, room temperature; detected with anti-c-myc-Cy3; signal given as percent of the Bim BH3 signal
[10] = target: Bcl-2 (UniProt P10415); test: fluorescence polarisation; binding assay in solution; direct or competition not told for this peptide (MRPL41 was unlabeled in Figure S2)
Target sequence in this assay (P10415 whole entry): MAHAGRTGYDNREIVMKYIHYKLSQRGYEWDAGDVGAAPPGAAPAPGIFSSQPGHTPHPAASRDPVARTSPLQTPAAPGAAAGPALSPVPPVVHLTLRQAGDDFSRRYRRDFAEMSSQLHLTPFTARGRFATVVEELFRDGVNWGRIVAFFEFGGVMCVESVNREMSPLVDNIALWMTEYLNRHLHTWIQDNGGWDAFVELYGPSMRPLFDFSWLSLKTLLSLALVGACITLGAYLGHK

Chain of TSC2 (chain, as listed by the source): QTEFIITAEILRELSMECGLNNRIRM
Chain of Bcl-xL (UniProt Q07817) (Q07817 1-209): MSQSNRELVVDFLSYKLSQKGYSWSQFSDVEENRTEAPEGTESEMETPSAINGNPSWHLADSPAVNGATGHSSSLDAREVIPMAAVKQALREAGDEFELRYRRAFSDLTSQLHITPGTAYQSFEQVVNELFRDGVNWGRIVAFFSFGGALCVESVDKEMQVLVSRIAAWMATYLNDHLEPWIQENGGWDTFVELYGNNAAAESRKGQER
Chain of BCL2L15 (chain, as listed by the source): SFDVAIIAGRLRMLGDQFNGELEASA
Chain of Bcl-w (Q92843 1-164 Q133R): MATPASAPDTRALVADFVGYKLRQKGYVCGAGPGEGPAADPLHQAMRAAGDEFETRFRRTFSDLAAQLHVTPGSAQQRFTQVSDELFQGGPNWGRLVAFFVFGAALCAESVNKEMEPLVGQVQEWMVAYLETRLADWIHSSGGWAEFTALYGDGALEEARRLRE
Chain of PSMB1 (chain, as listed by the source): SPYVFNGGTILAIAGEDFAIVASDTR
Chain of ATP2B1 (chain, as listed by the source): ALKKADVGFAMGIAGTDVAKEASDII
Chain of Bad BH3 peptide BH3 (Q92934 103-127): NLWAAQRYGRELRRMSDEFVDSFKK
Chain of Bcl-xL (from UniProt Q07817-1 1-233) (natural protein) (Q07817 whole entry): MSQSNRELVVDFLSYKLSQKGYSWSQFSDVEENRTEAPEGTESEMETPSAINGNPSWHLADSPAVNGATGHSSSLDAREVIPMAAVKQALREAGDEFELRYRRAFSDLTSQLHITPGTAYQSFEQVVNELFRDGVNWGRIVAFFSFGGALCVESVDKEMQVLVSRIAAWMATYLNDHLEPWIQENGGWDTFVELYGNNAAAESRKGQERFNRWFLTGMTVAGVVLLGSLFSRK
Chain of GRIN2D (chain, as listed by the source): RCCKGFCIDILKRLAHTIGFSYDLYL
Chain of PACSIN2 (chain, as listed by the source): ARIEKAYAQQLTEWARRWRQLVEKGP
Chain of Mcl-1 (from UniProt Q07820 1-350) (natural protein) (Q07820 whole entry): as the sequence (Q07820 whole entry) above
Chain of C7orf16 (chain, as listed by the source): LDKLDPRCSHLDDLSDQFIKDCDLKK
Chain of ARPC5L (chain, as listed by the source): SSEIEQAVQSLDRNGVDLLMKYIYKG
Chain of Bcl-2 (from UniProt P10415 1-239) (natural protein) (P10415 whole entry): as the sequence (P10415 whole entry) above
Chain of EHMT1 (chain, as listed by the source): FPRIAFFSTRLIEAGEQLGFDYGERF
Chain of EIF2C3 (chain, as listed by the source): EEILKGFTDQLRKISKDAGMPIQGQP
Chain of EIF2C1 (chain, as listed by the source): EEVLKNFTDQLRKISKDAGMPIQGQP
Chain of MYO3A (chain, as listed by the source): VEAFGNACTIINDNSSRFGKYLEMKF
Chain of GRIN3A (chain, as listed by the source): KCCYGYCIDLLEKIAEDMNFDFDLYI

ARPC5
SPOT signal as a fraction of Bim BH3's signal on the same receptor and array [1]: 0.03

ARPC5L
SPOT signal as a fraction of Bim BH3's signal on the same receptor and array [1]: 0.03

ATP2B1
SPOT signal as a fraction of Bim BH3's signal on the same receptor and array [2]: 0.01 | SPOT signal as a fraction of Bim BH3's signal on the same receptor and array [1]: 0.02

BCL2L15
SPOT signal as a fraction of Bim BH3's signal on the same receptor and array [3]: 0.75 | SPOT signal as a fraction of Bim BH3's signal on the same receptor and array [4]: 0.52 | SPOT signal as a fraction of Bim BH3's signal on the same receptor and array [5]: 0.58

Bad BH3 peptide BH3 (from UniProt Q92934)
Kd [6]: > 2500 nM | Kd [7]: > 2500 nM

Bcl-2 (from UniProt P10415 1-239) (natural protein)
Kd [8]: < 30 nM

Bcl-xL (from UniProt Q07817-1 1-233) (natural protein)
Kd [8]: < 30 nM | percent of the Bim BH3 SPOT signal [9]: 11%

C7orf16
SPOT signal as a fraction of Bim BH3's signal on the same receptor and array [1]: 0.02

C9orf84
SPOT signal as a fraction of Bim BH3's signal on the same receptor and array [2]: 0.02

CHAF1B
SPOT signal as a fraction of Bim BH3's signal on the same receptor and array [2]: 0.02 | SPOT signal as a fraction of Bim BH3's signal on the same receptor and array [1]: 0.02

CYP2A13
SPOT signal as a fraction of Bim BH3's signal on the same receptor and array [2]: 0.04 and 0.05 | SPOT signal as a fraction of Bim BH3's signal on the same receptor and array [4]: 0.04 | SPOT signal as a fraction of Bim BH3's signal on the same receptor and array [1]: 0.06 and 0.07

EHMT1
SPOT signal as a fraction of Bim BH3's signal on the same receptor and array [1]: 0.04

EIF2C1
SPOT signal as a fraction of Bim BH3's signal on the same receptor and array [1]: 0.02

EIF2C3
SPOT signal as a fraction of Bim BH3's signal on the same receptor and array [1]: 0.03

GRIN2D
SPOT signal as a fraction of Bim BH3's signal on the same receptor and array [2]: 0.06

GRIN3A
SPOT signal as a fraction of Bim BH3's signal on the same receptor and array [2]: 0.03

HRK
SPOT signal as a fraction of Bim BH3's signal on the same receptor and array [4]: 0.23 and 0.32 | SPOT signal as a fraction of Bim BH3's signal on the same receptor and array [1]: 0.56 and 0.38

KIF5C
SPOT signal as a fraction of Bim BH3's signal on the same receptor and array [2]: 0.07 and 0.16

MRPL41 BH3-like peptide
Kd [10]: 190 nM

MYO3A
SPOT signal as a fraction of Bim BH3's signal on the same receptor and array [2]: 0.13

Mcl-1 (from UniProt Q07820 1-350) (natural protein)
Kd [8]: < 30 nM

PACSIN2
SPOT signal as a fraction of Bim BH3's signal on the same receptor and array [1]: 0.24

PSMB1
SPOT signal as a fraction of Bim BH3's signal on the same receptor and array [2]: 0.02 | SPOT signal as a fraction of Bim BH3's signal on the same receptor and array [1]: 0.02

RPL29
SPOT signal as a fraction of Bim BH3's signal on the same receptor and array [1]: 0.72 and 0.7

SYN1
SPOT signal as a fraction of Bim BH3's signal on the same receptor and array [2]: 0.03 and 0.04 | SPOT signal as a fraction of Bim BH3's signal on the same receptor and array [4]: 0.04 | SPOT signal as a fraction of Bim BH3's signal on the same receptor and array [1]: 0.1

TAF6
SPOT signal as a fraction of Bim BH3's signal on the same receptor and array [2]: 0.03

TRIO
SPOT signal as a fraction of Bim BH3's signal on the same receptor and array [2]: 0.04 | SPOT signal as a fraction of Bim BH3's signal on the same receptor and array [4]: 0.04 and 0.05 | SPOT signal as a fraction of Bim BH3's signal on the same receptor and array [1]: 0.06

TSC2
SPOT signal as a fraction of Bim BH3's signal on the same receptor and array [2]: 0.06 | SPOT signal as a fraction of Bim BH3's signal on the same receptor and array [3]: 0.01 | SPOT signal as a fraction of Bim BH3's signal on the same receptor and array [4]: 0.03 | SPOT signal as a fraction of Bim BH3's signal on the same receptor and array [5]: 0.03 | SPOT signal as a fraction of Bim BH3's signal on the same receptor and array [1]: 0.15

VPS29
SPOT signal as a fraction of Bim BH3's signal on the same receptor and array [2]: 0.02 | SPOT signal as a fraction of Bim BH3's signal on the same receptor and array [1]: 0.02 and 0.01
